What was measured:
activin B = target: T1, activin B (UniProt P09529)
T1 sequence (looked up): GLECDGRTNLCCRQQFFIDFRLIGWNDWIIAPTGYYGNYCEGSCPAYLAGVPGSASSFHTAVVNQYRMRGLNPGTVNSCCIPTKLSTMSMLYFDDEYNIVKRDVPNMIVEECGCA

TGFβ3 (human) = target: T2, TGFβ3 (human) (UniProt P10600)
T2 sequence (looked up): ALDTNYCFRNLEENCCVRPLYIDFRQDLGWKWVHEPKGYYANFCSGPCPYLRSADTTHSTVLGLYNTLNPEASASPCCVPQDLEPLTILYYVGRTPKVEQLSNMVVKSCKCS

TGFβ2 (human) = target: T3, TGFβ2 (human) (UniProt P61812)
T3 sequence (looked up): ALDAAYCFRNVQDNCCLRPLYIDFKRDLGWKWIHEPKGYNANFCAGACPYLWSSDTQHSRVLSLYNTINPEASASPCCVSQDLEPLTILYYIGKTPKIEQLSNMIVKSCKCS

GDF11 = target: T4, GDF11 (UniProt O95390)
T4 sequence (looked up): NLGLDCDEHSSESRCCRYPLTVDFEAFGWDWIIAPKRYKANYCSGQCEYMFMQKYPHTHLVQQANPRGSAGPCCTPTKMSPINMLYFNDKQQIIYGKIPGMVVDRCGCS

activin A = target: T5, activin A (UniProt P08476)
T5 sequence (looked up): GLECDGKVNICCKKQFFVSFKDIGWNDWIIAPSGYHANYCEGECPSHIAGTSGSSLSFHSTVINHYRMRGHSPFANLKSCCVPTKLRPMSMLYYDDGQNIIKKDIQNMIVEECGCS

TGFβ1 (human) = TGFβ1 (human) (UniProt P01137)
Chain of UniProt P01137 (P01137 279-390 limits assumed): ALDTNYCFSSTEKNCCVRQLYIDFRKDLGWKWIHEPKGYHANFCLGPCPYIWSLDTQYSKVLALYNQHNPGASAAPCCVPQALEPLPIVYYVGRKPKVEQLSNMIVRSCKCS

BMP10 = target: T6, BMP10 (UniProt O95393)
T6 sequence (looked up): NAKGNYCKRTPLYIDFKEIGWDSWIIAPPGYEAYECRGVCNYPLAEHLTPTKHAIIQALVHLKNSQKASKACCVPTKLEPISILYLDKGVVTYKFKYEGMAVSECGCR

Row | IC50 (CAGA12 luciferase reporter gene assay) (activin B) | IC50 (CAGA12 luciferase reporter gene assay) (TGFβ3 (human)) | IC50 (CAGA12 luciferase reporter gene assay) (TGFβ2 (human)) | IC50 (CAGA12 luciferase reporter gene assay) (GDF11) | IC50 (CAGA12 luciferase reporter gene assay) (activin A) | IC50 (CAGA12 luciferase reporter gene assay) (TGFβ1 (human)) | IC50 (CAGA12 luciferase reporter gene assay) (BMP10) | Substance
1 | 1160 pM | 390 pM | > 20 µg/mL | 18100 pM | 1280 pM | 210 pM | > 20 µg/mL | ActRIIA-Fc:TβRII-Fc heterodimer (Fc fusion)
2 | > 20 µg/mL | – | > 20 µg/mL | > 20 µg/mL | > 20 µg/mL | 17 pM | > 20 µg/mL | TβRII-Fc homodimer (Fc fusion)

— patent publication US20220372107A1
